Experimental findings from patent US20250066478A1 (IBIO, published 2025) are described below.

The target in the test is T1, MUC16 membrane-proximal region (UniProt Q8WXI7 13810-14451).
T1 construct: domain: membrane-proximal region
T1 sequence: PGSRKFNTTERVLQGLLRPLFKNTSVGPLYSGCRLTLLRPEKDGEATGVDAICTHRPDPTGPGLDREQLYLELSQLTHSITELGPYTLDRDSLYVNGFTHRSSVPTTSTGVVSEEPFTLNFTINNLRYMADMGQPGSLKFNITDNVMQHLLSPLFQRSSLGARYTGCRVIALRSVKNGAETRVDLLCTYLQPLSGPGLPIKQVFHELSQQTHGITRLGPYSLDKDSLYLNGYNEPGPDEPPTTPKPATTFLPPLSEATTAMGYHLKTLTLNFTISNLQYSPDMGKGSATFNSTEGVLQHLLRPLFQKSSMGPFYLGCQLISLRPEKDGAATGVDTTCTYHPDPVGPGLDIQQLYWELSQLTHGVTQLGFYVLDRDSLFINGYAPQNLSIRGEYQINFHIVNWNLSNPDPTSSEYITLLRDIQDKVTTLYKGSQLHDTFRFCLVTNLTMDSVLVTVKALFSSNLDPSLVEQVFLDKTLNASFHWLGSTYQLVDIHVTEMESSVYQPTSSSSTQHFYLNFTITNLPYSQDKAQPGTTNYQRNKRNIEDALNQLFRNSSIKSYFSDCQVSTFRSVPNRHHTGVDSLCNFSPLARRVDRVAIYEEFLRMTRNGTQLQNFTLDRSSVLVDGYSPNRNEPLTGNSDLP
Description: FIG. 7A; method not named in the legend (Octet BLI or flow cytometry per the methods).

B1: 21G6 long linker mask on VH domain (antibody)
VH: NFTLDRSSVLVDGYSPNRNEPLTGNSDLPGGGGSSGGPGPAGMKGLPGSQVQLQESGPGLVKPSQTLSLTCTVSGYSITSDYAWNWIRQPPGKGLEWIGYISYSGSTIYNPSLKSRISISVDTSKNQFSLKLNSVTAADTAVYYCATLGLDYWGQGTLVTVSS
VL: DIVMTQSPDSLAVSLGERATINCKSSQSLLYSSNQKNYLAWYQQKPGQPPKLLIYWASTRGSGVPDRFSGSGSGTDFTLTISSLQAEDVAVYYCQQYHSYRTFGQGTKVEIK
notes: the methods give the format as IgG or scFv
Consider B1, for which the binding result was “no binding”.
